Tests used:
[1] = target: HA-tagged DAXX (Y124A, R371W) (UniProt Q9UER7); assay: co-IP; as the DAXX-ATRX co-IP (anti-HA magnetic beads on SF188 cell extracts, ethidium bromide), proteins separated on a 16% acrylamide gel; immunoblot for DAXX, H3.3 and H4
[2] = target: HA-tagged DAXX (Y124A) (human) (UniProt Q9UER7); assay: co-IP; anti-HA magnetic beads (Pierce HA-Tag Magnetic IP/Co-IP Kit) on SF188 cell extracts (500 μg protein), 4 h at 4°C, 50 μg/ml ethidium bromide throughout, final wash with 200 mM NaCl; immunoblot for DAXX and ATRX

Row | Substance | percent decrease of the interaction, corrected for the reduced stability of the mutant [1] | percent reduction of the interaction against DAXX WT [2] [%]
1 | H3.3-H4 heterodimer | its interaction with H3.3 and H4 was decreased by > 80% | 
2 | alpha-thalassemia/mental retardation syndrome X-linked (ATRX), P46100 1-2492 |  | > 95

Source: PMC10853780
